The source of these data is patent US20250179200A1 (UNIVERSITY OF CHICAGO, published 2025).

By Kd is commonly meant the equilibrium constant for the complex coming apart. By koff is commonly meant the rate constant with which the complex falls apart. The low end stands for a long-lived complex, the high end for a short-lived complex. For orientation: kon means the second-order rate constant of association. A lower kon goes with slower complex formation.

What all share (experiment): SPR, GHR_Fc-10xHis on Ni-NTA chip, Fab in 2-fold dilutions from 50 nM, 1:1 fit
In assay [1] the target is T1, Cyno GHR_Fc with 10x His-tag (Cyno, UniProt A0A2K5WH01 19-262).
T1 construct: not shown: Fc domain and 10x His-tag
T1 sequence: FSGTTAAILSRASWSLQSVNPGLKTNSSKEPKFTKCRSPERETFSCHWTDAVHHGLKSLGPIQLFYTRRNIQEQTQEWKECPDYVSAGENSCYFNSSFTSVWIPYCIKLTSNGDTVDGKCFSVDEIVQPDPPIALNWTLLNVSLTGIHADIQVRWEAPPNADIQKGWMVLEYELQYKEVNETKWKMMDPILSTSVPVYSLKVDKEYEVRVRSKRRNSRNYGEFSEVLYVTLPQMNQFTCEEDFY
How it is done:
(§1) Surface plasmon resonance (SPR) measurements were conducted in a MASS-1 (Bruker) instrument. The target GHR-Fc (50 nM) with a 10× His-tag was captured in a Ni-NTA sensor chip. […] Flow rate was 30 ul/min and temperature 20° C. Sensograms were corrected through double referencing and fitting was done with a 1:1 binding model using the Sierra Analyzer (Bruker). For epitope binning experiments, the first FAB was injected at saturating concentrations (200 nM), followed by injection a second FAB in equal molar mixture with the first FAB, and the response unit (RU) was recorded.
(§2) Target GHR_Fc (from different species) were immobilized via a 10× His-tag to a Ni-NTA sensor chip. […] Sensograms were corrected through double referencing and 1:1 binding model fit was done using Sierra Analyzer (Bruker). To reveal different epitopes on GHR, the epitope binning experiment was performed.

For assay [2], the target named is T2, Rabbit GHR_Fc with 10x His-tag (rabbit, UniProt P19941 19-264, limits assumed).
T2 construct: not shown: Fc domain and 10x His-tag
T2 sequence (looked up): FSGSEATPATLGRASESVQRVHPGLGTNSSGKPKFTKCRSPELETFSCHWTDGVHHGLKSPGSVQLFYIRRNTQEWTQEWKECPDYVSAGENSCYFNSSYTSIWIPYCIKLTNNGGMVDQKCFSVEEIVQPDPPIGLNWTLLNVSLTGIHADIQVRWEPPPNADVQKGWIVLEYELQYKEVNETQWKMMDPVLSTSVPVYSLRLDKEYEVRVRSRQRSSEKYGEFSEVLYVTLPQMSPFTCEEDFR
The method, then: as §1, §2

Assay [3] deals with T3, Rat GHR_Fc with 10x His-tag (rat, UniProt P16310 19-265, limits assumed).
T3 construct: not shown: Fc domain and 10x His-tag
T3 sequence (looked up): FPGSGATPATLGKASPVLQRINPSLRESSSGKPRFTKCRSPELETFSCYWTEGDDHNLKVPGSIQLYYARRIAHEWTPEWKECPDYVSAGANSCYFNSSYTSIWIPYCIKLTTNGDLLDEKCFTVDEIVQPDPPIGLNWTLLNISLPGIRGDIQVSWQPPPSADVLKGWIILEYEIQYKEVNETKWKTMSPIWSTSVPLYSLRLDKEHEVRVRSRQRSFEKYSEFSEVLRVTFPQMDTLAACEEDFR
The method, then: as §1, §2

Assay [4] addresses T4, Murine GHR_Fc with 10x His-tag (murine, UniProt P16882 25-273, limits assumed).
T4 construct: not shown: Fc domain and 10x His-tag
T4 sequence (looked up): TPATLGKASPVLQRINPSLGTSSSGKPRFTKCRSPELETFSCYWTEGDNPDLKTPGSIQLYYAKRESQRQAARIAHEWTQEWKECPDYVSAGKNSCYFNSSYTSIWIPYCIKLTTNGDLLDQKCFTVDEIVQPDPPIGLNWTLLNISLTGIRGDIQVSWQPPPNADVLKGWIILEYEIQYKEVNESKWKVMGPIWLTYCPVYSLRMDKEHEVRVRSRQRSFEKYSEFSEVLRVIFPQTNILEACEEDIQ
The method, then:
as §1, §2

In assay [5] the target is T5, Human GHR-Fc-10x His (extracellular region of human growth hormone receptor fused to human Fc) (human, UniProt P10912 50-256).
T5 construct: Captured by its 10x His-tag on a Ni-NTA sensor chip for SPR; not shown: human Fc domain of vector pAB1200 with its linker; 10x His-tag replacing the AviTag
T5 sequence (looked up): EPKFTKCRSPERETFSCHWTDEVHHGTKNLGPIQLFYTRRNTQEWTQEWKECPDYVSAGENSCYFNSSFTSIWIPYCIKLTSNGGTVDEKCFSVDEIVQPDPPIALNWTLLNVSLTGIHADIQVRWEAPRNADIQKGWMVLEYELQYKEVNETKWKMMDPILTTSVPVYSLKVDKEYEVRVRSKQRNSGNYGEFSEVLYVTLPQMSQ
The method, then:
as §1, §2

Assay [6] concerns the target T6, Pig GHR_Fc with 10x His-tag (pig, UniProt P19756 19-264, limits assumed).
T6 construct: not shown: Fc domain and 10x His-tag
T6 sequence (looked up): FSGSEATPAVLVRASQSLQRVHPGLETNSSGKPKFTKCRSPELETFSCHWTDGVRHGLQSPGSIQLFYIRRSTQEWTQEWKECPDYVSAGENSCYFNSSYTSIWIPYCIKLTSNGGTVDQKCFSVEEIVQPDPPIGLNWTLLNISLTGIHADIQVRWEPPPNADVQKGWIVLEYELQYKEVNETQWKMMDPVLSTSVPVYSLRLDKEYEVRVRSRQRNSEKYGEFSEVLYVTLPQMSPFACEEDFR
The method, then:
as §1, §2

B1: GHR_TS23 Fab (Fab, V domains shown)
VH: EVQLVESGGGLVQPGGSLRLSCAASGFNFYYSSIHWVRQAPGKGLEWVASIYSYSGSTSYADSVKGRFTISADTSKNTAYLQMNSLRAEDTAVYYCARQYWYYGGYFYYGIDYWGQGTLVTVSS
VL: DIQMTQSPSSLSASVGDRVTITCRASQSVSSAVAWYQQKPGKAPKLLIYSASSLYSGVPSRFSGSRSGTDFTLTISSLQPEDFATYYCQQYWSTLITFGQGTKVEIKR
notes: Fab from the cross-species phage display selection
With B1, the dissociation constant Kd in assay [1] stood at 1.3 nM; in assay [2] it was 2.5 nM; in assay [3] it was 8.2 nM; in assay [4] it was 7.8 nM; in assay [5], 0.2 nM; in assay [6], 1.8 nM. The koff was 0.00038 s⁻¹ in assay [1]; 0.0014 s⁻¹ in assay [2]; 0.0031 s⁻¹ in assay [3]; 0.0051 s⁻¹ in assay [4]; 0.00017 s⁻¹ in assay [5]; 0.0012 s⁻¹ in assay [6]. In addition, the kon in assay [1] was found to be 300000 M⁻¹ s⁻¹; in assay [2], 560000 M⁻¹ s⁻¹; in assay [3], 370000 M⁻¹ s⁻¹; in assay [4], 660000 M⁻¹ s⁻¹; in assay [5], 830000 M⁻¹ s⁻¹; in assay [6], 670000 M⁻¹ s⁻¹.
